Results from article PMC11457862 (2024).
“And” between values parts separate entries of the source, which are not always exact repeats. Equal entries are not always repeated.

Biological target: human IL-2 (human, UniProt P60568 21-153)
Assay: FACS

B1: yeast-displayed 602 scFv (scFv, V domains shown)
VH: EVQLQESGPGLVAPSQSLSITCTVSGFSLTNYDISWIRQPPGKGLEWLGVIWTGGGTNYNSGFMSRLSITKDNSKSQVFLKMNSLQTDDTAIYYCVRQGRTPYWGQGTLVTVSA
VL: DIQVTQSPSSLSVSLGDRVTITCKASKDIYNRLAWYQQKPGNAPRLLISGATSLETGVPSRFSGSGSGKDYTLTITSLQTEDVATYYCQQFWGTPYTFGGGTKLEIK
Q: B1 was tested. Which EC50 did it give?
A: 0.0133 µM and 0.0122 µM
